Measurements reported in patent US10920265B2, “Compounds and methods for detection of enzymes that remove methyl succinyl groups from epsilon-amino lysine moieties” (Enzo Life Sciences, Inc., priority 2011, dated 2021).

Substrate: CC(=O)N[C@@H](CCCCNC(=O)CCC(=O)O)C(=O)Nc1ccc2c(C)cc(=O)oc2c1
Test: SIRT5 desuccinylation/deacetylation of fluorogenic lysyl substrates, trypsin developer
Assay type: biochemical, human
Settings: other: varied substrate: Lysyl, 1 mM NAD^+, 10 ng SIRT5, 20 min. at 37° C., pH 8.0
Procedure: FIG. 3 is graphs showing that SIRT5 catalyzes NAD^+-dependent desuccinylation of Ac-Lys(ε-succinyl)-AMC far more efficiently than NAD^+-dependent deacetylation of Ac-Arg-His-Lys-Lys(ε-acetyl)-AMC. Fifty μl reactions in Assay Buffer (50 mM Tris/HCl, pH 8.0, 137 mM NaCl, 2.7 mM KCl, 1 mM MgCl2, 1 mg/ml BSA) included 50 μM of either Ac-Lys(ε-succinyl)-AMC or Ac-Arg-His-Lys-Lys(ε-acetyl)-AMC, and, where indicated, 500 μM NAD^+ and 5 μg recombinant human SIRT5 (Enzo Life Sciences Cat. # BML-SE555). […] AMC fluorescence was read in a Cytofluor II plate-reading fluorimeter (Perseptive Biosystems) at wavelengths 360 nm (excitation)/460 nm (emission), Gain 54. Data represent the mean of two (No Enzyme) or three (+SIRT5) determinations and error bars the standard deviations. Panels A and B present the same data, but with the +SIRT5/+NAD^+/Ac-Lys(ε-succinyl)-AMC bar omitted from B to show the detail on the remaining bars. Statistically significant differences (Student's t-test) are indicated by asterisks as follows: *: p<0.02 vs. corresponding No Enzyme control; **: p<0.001 vs. corresponding −NAD^+ control; ***: p<3×10^−6 vs. both No Enzyme and −NAD^+ controls.
FIG. 4 is a graph showing that Ac-Lys(Succ.)-AMC enables SIRT5 assay at low enzyme concentrations. Fifty μl reactions in Assay Buffer (50 mM Tris/HCl, pH 8.0, 137 mM NaCl, 2.7 mM KCl, 1 mM MgCl2, 1 mg/ml BSA) included 2 or 10 μM Ac-Lys(ε-succinyl)-AMC, 500 μM NAD^+ and, where indicated, 5 ng recombinant human SIRT5 (Enzo Life Sciences Cat. # BML-SE555). […] AMC fluorescence was read in a Synergy 2 plate-reading fluorimeter (BioTek) at wavelengths 360 nm (excitation)/460 nm (emission), Gain 40. Data represent the mean of two (No Enzyme) or three (5 ng SIRT5) determinations and error bars the standard deviations. Statistically significant differences (Student's t-test) are indicated by asterisks as follows: *: p=0.002; **: p=0.009, each with respect to the corresponding “No SIRT5” samples.
FIG. 5 is graphs showing dependence of SIRT5 initial rate kinetics on the concentrations of Ac-Lys(Succ.)-AMC and Ac-Lys(Ac.)-AMC. Fifty μl desuccinylation or deacetylation reactions were performed as described earlier (FIG. 4), with the indicated concentrations of Ac-Lys(Succ.)-AMC or Ac-Lys(Ac.)-AMC and 1 mM NAD^+, for 20 min. at 37° C. Reactions with Ac-Lys(Succ.)-AMC contained 10 ng SIRT5 and those with Ac-Lys(Ac.)-AMC contained 5 SIRT5. […] AMC fluorescence was read in a Synergy 2 plate-reading fluorimeter (BioTek) at wavelengths 360 nm (excitation)/460 nm (emission), Gain 40. […] Fluorescence differences were converted to specific activities (pmol/min/μg) by measuring the fluorescence increase due to the addition a standard solution of AMC (5 μl of a […]). […]

B1: recombinant human SIRT5 (Homo sapiens) (protein)
chain: SSSMADFRKFFAKAKHIVIISGAGVSAESGVPTFRGAGGYWRKWQAQDLATPLAFAHNPSRVWEFYHYRREVMGSKEPNAGHRAIAECETRLGKQGRRVVVITQNIDELHRKAGTKNLLEIHGSLFKTRCTSCGVVAENYKSPICPALSGKGAPEPGTQDASIPVEKLPRCEEAGCGGLLRPHVVWFGENLDPAILEEVDRELAHCDLCLVVGTSSVVYPAAMFAPQVAARGVPVAEFNTETTPATNRFRFHFQGPCGTTLPEALACHENETVS
notes: purchased Enzo Life Sciences BML-SE555
In the case of B1, the Km is reported as 108 µM, the Vmax is reported as 490 pmol/min/µg and the kcat is reported as 0.26 s⁻¹. The kcat/Km was 2450 M⁻¹ s⁻¹.
